± gives the standard deviation of the averaged measurements.
Experiment: total protein half-life in vivo (active degradation + dilution); higher = more stable protein
[1] = E. coli NCM3722 delta-clpP delta-lon delta-hslV, growth: N-lim chemostat, doubling time 6 h
[2] = E. coli NCM3722 delta-clpP, growth: N-lim chemostat, doubling time 6 h
[3] = E. coli NCM3722 delta-hslV, growth: N-lim chemostat, doubling time 6 h
[4] = E. coli NCM3722 delta-lon, growth: N-lim chemostat, doubling time 6 h
[5] = E. coli NCM3722 delta-smpB, growth: N-lim chemostat, doubling time 6 h
[6] = wild type E. coli NCM3722, growth: C-lim chemostat, doubling time 3 h
[7] = wild type E. coli NCM3722, growth: C-lim chemostat, doubling time 6 h
[8] = wild type E. coli NCM3722, growth: C-lim chemostat, doubling time 12 h
[9] = wild type E. coli NCM3722, growth: N-lim chemostat, doubling time 6 h
[10] = wild type E. coli NCM3722, growth: N-lim chemostat, doubling time 12 h
[11] = wild type E. coli NCM3722, growth: P-lim chemostat, doubling time 6 h
[12] = wild type E. coli NCM3722, growth: P-lim chemostat, doubling time 12 h

Sequence	total protein half-life in vivo [1] [h]	total protein half-life in vivo [2] [h]	total protein half-life in vivo [3] [h]	total protein half-life in vivo [4] [h]	total protein half-life in vivo [5] [h]	total protein half-life in vivo [6] [h]	total protein half-life in vivo [7] [h]	total protein half-life in vivo [8] [h]	total protein half-life in vivo [9] [h]	total protein half-life in vivo [10] [h]	total protein half-life in vivo [11] [h]	total protein half-life in vivo [12] [h]
MMSLAWPLFRVTEQAALAAWPQTGCGDKNKIDGLAVTAMRQALNDVAFRGRVVIGEGEIDHAPMLWIGEEVGKGDGPEVDIAVDPIEGTRMVAMGQSNALAVMAFAPRDSLLHAPDMYMKKLVVNRLAAGAIDLSLPLTDNLRNVAKALGKPLDKLRMVTLDKPRLSAAIEEATQLGVKVFALPDGDVAASVLTCWQDNPYDVMYTIGGAPEGVISACAVKALGGDMQAELIDFCQAKGDYTENRQIAEQERKRCKAMGVDVNRVYSLDELVRGNDILFSATGVTGGELVNGIQQTANGVRTQTLLIGGADQTCNIIDSLH	3.96	–	–	–	–	–	–	–	–	–	–	–
MMSQPAKVLLLYAHPESQDSVANRVLLKPATQLSNVTVHDLYAHYPDFFIDIPREQALLREHEVIVFQHPLYTYSCPALLKEWLDRVLSRGFASGPGGNQLAGKYWRSVITTGEPESAYRYDALNRYPMSDVLRPFELAAGMCRMHWLSPIIIYWARRQSAQELASHARAYGDWLANPLSPGGR [P0A756]	5.94 ± 0.44	5.15 ± 0.59	5.89 ± 0.62	5.99 ± 0.26	5.51 ± 0.33	2.94 ± 0.079	5.7 ± 1.1	10.6 ± 2.5	5.63 ± 0.52	10.74 ± 0.04	5.239 ± 0.0081	10.6 ± 0.47
MMSTTLFKDFTFEAAHRLPHVPEGHKCGRLHGHSFMVRLEITGEVDPHTGWIIDFAELKAAFKPTYERLDHHYLNDIPGLENPTSEVLAKWIWDQVKPVVPLLSAVMVKETCTAGCIYRGE	4.72 ± 1	6.75 ± 0.54	5.07	6.5 ± 0.67	5.53 ± 0.14	–	6.53 ± 0.12	12.7 ± 0.82	7.08	13.1 ± 1.2	6.75 ± 0.27	13.2
MMTTILTIHVPSTPGRAWNMLVALQAGNIVARYAKLHLYDAFAIQESRRVDAGNEIAPLLEVEGMKVGLMTCYDLRFPELALAQALQGAEILVLPAAWVRGPLKEHHWSTLLAARALDTTCYMVAAGECGNKNIGQSRIIDPFGVTIAAASEMPALIMAEVTPERVRQVRAQLPVLNNRRFAPPQLL [P0DP64]	7.53	–	–	–	–	–	–	–	–	–	–	–
MMVIRPVERSDVSALMQLASKTGGGLTSLPANEATLSARIERAIKTWQGELPKSEQGYVFVLEDSETGTVAGICAIEVAVGLNDPWYNYRVGTLVHASKELNVYNALPTLFLSNDHTGSSELCTLFLDPDWRKEGNGYLLSKSRFMFMAAFRDKFNDKVVAEMRGVIDEHGYSPFWQSLGKRFFSMDFSRADFLCGTGQKAFIAELMPKHPIYTHFLSQEAQDVIGQVHPQTAPARAVLEKEGFRYRNYIDIFDGGPTLECDIDRVRAIRKSRLVEVAEGQPAQGDFPACLVANENYHHFRVVLVRTDPATERLILTAAQLDALKCHAGDRVRLVRLCAEEKTA [P0AE37]	5.43 ± 0.59	2.85 ± 0.19	2.96 ± 0.92	2.88 ± 0.041	2.78 ± 0.33	2.58 ± 0.12	4.56 ± 0.31	9.68 ± 2.2	2.452 ± 0.0032	3.22 ± 0.69	4.07 ± 0.25	9.08 ± 0.78
MMYHIPGVLSPQDVARFREQLEQAEWVDGRVTTGAQGAQVKNNQQVDTRSTLYAALQNEVLNAVNQHALFFAAALPRTLSTPLFNRYQNNETYGFHVDGAVRSHPQNGWMRTDLSATLFLSDPQSYDGGELVVNDTFGQHRVKLPAGDLVLYPSSSLHCVTPVTRGVRVASFMWIQSMIRDDKKRAMLFELDNNIQSLKSRYGESEEILSLLNLYHNLLREWSEI	4.14 ± 0.34	2.79	2.86	3.12 ± 0.055	2.31 ± 0.3	3 ± 0.17	4.856 ± 0.037	6.39	–	4.16	5.85 ± 0.63	11.4 ± 1.4
MNAIWIAVAAVSLLGLAFGAILGYASRRFAVEDDPVVEKIDEILPQSQCGQCGYPGCRPYAEAISCNGEKINRCAPGGEAVMLKIAELLNVEPQPLDGEAQEITPARMVAVIDENNCIGCTKCIQACPVDAIVGATRAMHTVMSDLCTGCNLCVDPCPTHCISLQPVAETPDSWKWDLNTIPVRIIPVEHHA	2.26 ± 0.093	1.52	–	–	0.89	–	0.945	–	–	–	–	1.92 ± 0.49
MNALLSNPFKERLRKGEVQIGLWLSSTTAYMAEIAATSGYDWLLIDGEHAPNTIQDLYHQLQAVAPYASQPVIRPVEGSKPLIKQVLDIGAQTLLIPMVDTAEQARQVVSATRYPPYGERGVGASVARAARWGRIENYMAQVNDSLCLLVQVESKTALDNLDEILDVEGIDGVFIGPADLSASLGYPDNAGHPEVQRIIETSIRRIRAAGKAAGFLAVAPDMAQQCLAWGANFVAVGVDTMLYSDALDQRLAMFKSGKNGPRIKGSY	–	2.69 ± 0.27	–	–	2.17	2.74	4.08	6.62 ± 0.94	–	3.25	–	–
MNATAAQTKSLEWLNRLRANPKIPLIVAGSAAVAVMVALILWAKAPDYRTLFSNLSDQDGGAIVSQLTQMNIPYRFSEASGAIEVPADKVHELRLRLAQQGLPKGGAVGFELLDQEKFGISQFSEQVNYQRALEGELSRTIETIGPVKGARVHLAMPKPSLFVREQKSPSASVTVNLLPGRALDEGQISAIVHLVSSAVAGLPPGNVTLVDQGGHLLTQSNTSGRDLNDAQLKYASDVEGRIQRRIEAILSPIVGNGNIHAQVTAQLDFASKEQTEEQYRPNGDESHAALRSRQLNESEQSGSGYPGGVPGALSNQPAPANNAPISTPPANQNNRQQQASTTSNSGPRSTQRNETSNYEVDRTIRHTKMNVGDVQRLSVAVVVNYKTLPDGKPLPLSNEQMKQIEDLTREAMGFSEKRGDSLNVVNSPFNSSDESGGELPFWQQQAFIDQLLAAGRWLLVLLVAWLLWRKAVRPQLTRRAEAMKAVQQQAQAREEVEDAVEVRLSKDEQLQQRRANQRLGAEVMSQRIREMSDNDPRVVALVIRQWINNDHE	6.55	6.44	–	–	–	2.6 ± 0.24	4.73 ± 0.44	6.98 ± 0.67	–	–	–	–

Source: the supplement of paper PMC11246515
